The source of these data is article doi:10.1101/2021.02.17.431757 (bioRxiv, 2021).

For this assay, the target named is GST-TopBP1 (aa 32-1522) His, recombinant (UniProt Q92547 32-1522). Kind of assay: pull-down.
Chain of GST-TopBP1 (aa 32-1522) His, recombinant (Q92547 32-1522): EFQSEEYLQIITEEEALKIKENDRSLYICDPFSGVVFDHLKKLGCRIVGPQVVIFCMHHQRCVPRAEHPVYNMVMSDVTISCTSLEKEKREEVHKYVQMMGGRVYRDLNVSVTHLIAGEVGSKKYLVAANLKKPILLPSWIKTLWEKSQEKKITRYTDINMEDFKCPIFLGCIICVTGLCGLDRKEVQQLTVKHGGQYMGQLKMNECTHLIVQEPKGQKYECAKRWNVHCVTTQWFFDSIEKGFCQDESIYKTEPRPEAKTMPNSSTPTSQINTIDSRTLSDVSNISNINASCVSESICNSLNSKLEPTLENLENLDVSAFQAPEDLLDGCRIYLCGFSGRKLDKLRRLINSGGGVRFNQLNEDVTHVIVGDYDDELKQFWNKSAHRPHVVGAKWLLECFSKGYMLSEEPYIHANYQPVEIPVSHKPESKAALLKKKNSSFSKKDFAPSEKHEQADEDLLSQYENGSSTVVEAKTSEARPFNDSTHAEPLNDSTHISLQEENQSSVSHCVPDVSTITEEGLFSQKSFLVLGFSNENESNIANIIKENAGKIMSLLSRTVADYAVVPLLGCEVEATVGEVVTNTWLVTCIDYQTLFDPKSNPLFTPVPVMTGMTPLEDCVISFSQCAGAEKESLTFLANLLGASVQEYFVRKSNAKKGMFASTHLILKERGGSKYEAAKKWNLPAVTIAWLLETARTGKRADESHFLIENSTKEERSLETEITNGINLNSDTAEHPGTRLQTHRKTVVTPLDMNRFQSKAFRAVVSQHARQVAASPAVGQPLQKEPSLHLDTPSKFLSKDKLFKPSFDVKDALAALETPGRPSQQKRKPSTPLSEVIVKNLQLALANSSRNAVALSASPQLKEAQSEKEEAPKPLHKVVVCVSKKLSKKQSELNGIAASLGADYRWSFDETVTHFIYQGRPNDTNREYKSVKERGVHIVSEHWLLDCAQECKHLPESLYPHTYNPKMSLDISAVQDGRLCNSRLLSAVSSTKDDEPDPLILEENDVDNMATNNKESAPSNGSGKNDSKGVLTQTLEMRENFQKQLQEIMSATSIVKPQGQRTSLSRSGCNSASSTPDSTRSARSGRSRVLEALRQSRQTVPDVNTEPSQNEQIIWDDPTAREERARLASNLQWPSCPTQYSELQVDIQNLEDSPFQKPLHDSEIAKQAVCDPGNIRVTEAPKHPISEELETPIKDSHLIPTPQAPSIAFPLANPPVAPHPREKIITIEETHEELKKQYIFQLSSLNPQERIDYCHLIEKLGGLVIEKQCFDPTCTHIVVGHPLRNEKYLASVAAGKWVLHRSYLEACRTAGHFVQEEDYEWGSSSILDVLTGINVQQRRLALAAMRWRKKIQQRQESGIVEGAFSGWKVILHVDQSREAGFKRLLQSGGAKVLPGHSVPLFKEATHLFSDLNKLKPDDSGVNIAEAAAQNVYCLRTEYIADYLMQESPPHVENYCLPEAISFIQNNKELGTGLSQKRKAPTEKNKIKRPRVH

B1: His-E2-S23D (amino acids 1-200), recombinant (domain or fragment, human papillomavirus 16 (HPV16), UniProt P03120 1-200, looked up)
chain: METLCQRLNVCQDKILTHYENDDTDLRDHIDYWKHMRLECAIYYKAREMGFKHINHQVVPTLAVSKNKALQAIELQLTLETIYNSQYSNEKWTLQDVSLEVYLTAPTGCIKKHGYTVEVQFDGDICNTMHYTNWTHIYICEEASVTVVEGQVDYYGLYYVHEGIRTYFVQFKDDAEKYSKNKVWEVHAGGQVILCPTSVF
In the case of B1, the binding result is on record as “binds”.
